Experimental data from US12467929.
Blank lines part the entries; values can stand above or below the substance they belong to.

Key:
[1] = molecular target: UBE3A standard protein (ab206157, Abcam) (Homo sapiens (Human)) (UniProt Q05086); test: Singulex sandwich; capture GTX101092; UBE3A 78.125 pg/ml
[2] = molecular target: UBE3A standard protein (Abcam, ab125736) (Homo sapiens (Human)) (UniProt Q05086); test: Singulex sandwich; capture GTX10488; interpolated UBE3A 3.39 pg/mL
[3] = molecular target: UBE3A standard protein (Abcam, ab125736) (Homo sapiens (Human)) (UniProt Q05086); test: Singulex sandwich; capture GTX10488; interpolated UBE3A 2039.33 pg/mL
[4] = molecular target: UBE3A standard protein (ab206157, Abcam) (Homo sapiens (Human)) (UniProt Q05086); test: Singulex sandwich; capture GTX101092; UBE3A 1250 pg/ml
[5] = molecular target: UBE3A standard protein (Abcam, ab125736) (Homo sapiens (Human)) (UniProt Q05086); test: Singulex sandwich; capture GTX10488; interpolated UBE3A 661.46 pg/mL
[6] = molecular target: UBE3A standard protein (Abcam, ab125736) (Homo sapiens (Human)) (UniProt Q05086); test: Singulex sandwich; capture GTX10488; interpolated UBE3A 78.6 pg/mL
[7] = molecular target: UBE3A standard protein (Abcam, ab125736) (Homo sapiens (Human)) (UniProt Q05086); test: Singulex sandwich; capture GTX10488; interpolated UBE3A 256.41 pg/mL
[8] = molecular target: UBE3A standard protein (ab206157, Abcam) (Homo sapiens (Human)) (UniProt Q05086); test: Singulex sandwich; capture GTX101092; UBE3A 19.531 pg/ml
[9] = molecular target: UBE3A standard protein (ab206157, Abcam) (Homo sapiens (Human)) (UniProt Q05086); test: Singulex sandwich; capture GTX101092; UBE3A 156.25 pg/ml
[10] = molecular target: UBE3A standard protein (Abcam, ab125736) (Homo sapiens (Human)) (UniProt Q05086); test: Singulex sandwich; capture GTX10488; interpolated UBE3A 31.06 pg/mL
[11] = molecular target: UBE3A standard protein (ab206157, Abcam) (Homo sapiens (Human)) (UniProt Q05086); test: Singulex sandwich; capture GTX101092; UBE3A 312.5 pg/ml
[12] = molecular target: UBE3A standard protein (Abcam, ab125736) (Homo sapiens (Human)) (UniProt Q05086); test: Singulex sandwich; capture GTX10488; interpolated UBE3A 10.59 pg/mL
[13] = molecular target: UBE3A standard protein (ab206157, Abcam) (Homo sapiens (Human)) (UniProt Q05086); test: Singulex sandwich; capture GTX101092; UBE3A 39.063 pg/ml
[14] = molecular target: UBE3A standard protein (Abcam, ab125736) (Homo sapiens (Human)) (UniProt Q05086); test: Singulex sandwich; capture GTX10488; interpolated UBE3A ND
[15] = molecular target: UBE3A standard protein (ab206157, Abcam) (Homo sapiens (Human)) (UniProt Q05086); test: Singulex sandwich; capture GTX101092; UBE3A 9.766 pg/ml
[16] = molecular target: UBE3A standard protein (ab206157, Abcam) (Homo sapiens (Human)) (UniProt Q05086); test: Singulex sandwich; capture GTX101092; UBE3A 5000 pg/ml
[17] = molecular target: UBE3A standard protein (ab206157, Abcam) (Homo sapiens (Human)) (UniProt Q05086); test: Singulex sandwich; capture GTX101092; UBE3A 2500 pg/ml
[18] = molecular target: UBE3A standard protein (ab206157, Abcam) (Homo sapiens (Human)) (UniProt Q05086); test: Singulex sandwich; capture GTX101092; UBE3A 10000 pg/ml
[19] = molecular target: recombinant UBE3A protein (Homo sapiens (Human)) (UniProt Q05086); test: 3-step Simoa; capture Novus; UBE3A 10 ng/ml
[20] = molecular target: recombinant UBE3A protein (Homo sapiens (Human)) (UniProt Q05086); test: 3-step Simoa; capture GTX; UBE3A 0.1 ng/ml
[21] = molecular target: recombinant UBE3A protein (Homo sapiens (Human)) (UniProt Q05086); test: 3-step Simoa; capture MS 3E5; UBE3A 0.010 ng/ml
[22] = molecular target: recombinant UBE3A protein (Homo sapiens (Human)) (UniProt Q05086); test: 2-step Simoa; capture MS 3E5; UBE3A 0.1 ng/ml
[23] = molecular target: recombinant UBE3A protein (Homo sapiens (Human)) (UniProt Q05086); test: 3-step Simoa; capture MS 3E5; UBE3A 1 ng/ml
[24] = molecular target: recombinant UBE3A protein (Homo sapiens (Human)) (UniProt Q05086); test: 2-step Simoa; capture GTX; UBE3A 1 ng/ml
[25] = molecular target: recombinant UBE3A protein (Homo sapiens (Human)) (UniProt Q05086); test: 2-step Simoa; capture Novus; UBE3A 0.01 ng/ml
[26] = molecular target: recombinant UBE3A protein (Homo sapiens (Human)) (UniProt Q05086); test: 3-step Simoa; capture Novus; UBE3A 0.1 ng/ml
[27] = molecular target: recombinant UBE3A protein (Homo sapiens (Human)) (UniProt Q05086); test: 3-step Simoa; capture Novus; UBE3A 1 ng/ml
[28] = molecular target: recombinant UBE3A protein (Homo sapiens (Human)) (UniProt Q05086); test: 2-step Simoa; capture Novus; UBE3A 10 ng/ml
[29] = molecular target: recombinant UBE3A protein (Homo sapiens (Human)) (UniProt Q05086); test: 2-step Simoa; capture GTX; UBE3A 0.1 ng/ml
[30] = molecular target: recombinant UBE3A protein (Homo sapiens (Human)) (UniProt Q05086); test: 2-step Simoa; capture MS 3E5; UBE3A 1 ng/ml
[31] = molecular target: recombinant UBE3A protein (Homo sapiens (Human)) (UniProt Q05086); test: 3-step Simoa; capture MS 3E5; UBE3A 0.1 ng/ml
[32] = molecular target: recombinant UBE3A protein (Homo sapiens (Human)) (UniProt Q05086); test: 2-step Simoa; capture Novus; UBE3A 0.1 ng/ml
[33] = molecular target: recombinant UBE3A protein (Homo sapiens (Human)) (UniProt Q05086); test: 2-step Simoa; capture GTX; UBE3A 10 ng/ml
[34] = molecular target: recombinant UBE3A protein (Homo sapiens (Human)) (UniProt Q05086); test: 3-step Simoa; capture Novus; UBE3A 0.01 ng/ml
[35] = molecular target: recombinant UBE3A protein (Homo sapiens (Human)) (UniProt Q05086); test: 3-step Simoa; capture GTX; UBE3A 1 ng/ml
[36] = molecular target: recombinant UBE3A protein (Homo sapiens (Human)) (UniProt Q05086); test: 3-step Simoa; capture GTX; UBE3A 10 ng/ml
[37] = molecular target: recombinant UBE3A protein (Homo sapiens (Human)) (UniProt Q05086); test: 3-step Simoa; capture GTX; UBE3A 0.01 ng/ml
[38] = molecular target: recombinant UBE3A protein (Homo sapiens (Human)) (UniProt Q05086); test: 2-step Simoa; capture MS 3E5; UBE3A 0.01 ng/ml
[39] = molecular target: recombinant UBE3A protein (Homo sapiens (Human)) (UniProt Q05086); test: 2-step Simoa; capture Novus; UBE3A 1 ng/ml
[40] = molecular target: recombinant UBE3A protein (Homo sapiens (Human)) (UniProt Q05086); test: 2-step Simoa; capture GTX; UBE3A 0.01 ng/ml
[41] = molecular target: recombinant UBE3A protein (Homo sapiens (Human)) (UniProt Q05086); test: 2-step Simoa; capture MS 3E5; UBE3A 10 ng/ml
[42] = molecular target: recombinant UBE3A protein (Homo sapiens (Human)) (UniProt Q05086); test: 3-step Simoa; capture MS 3E5; UBE3A 10 ng/ml

AvgDE [1]: 559 DE
DE Mean [2]: 461 DE
DE S/N [2]: 1.1
EP Mean [2]: 71800 EP
S-N [2]: 13 DE
DE Mean [3]: 13600 DE
DE S/N [3]: 33.1
EP Mean [3]: 5.69e+06 EP
S-N [3]: 13000 DE
AvgDE [4]: 4130 DE
DE Mean [5]: 9340 DE
DE S/N [5]: 22.7
EP Mean [5]: 2.27e+06 EP
S-N [5]: 8460 DE
DE Mean [6]: 1770 DE
DE S/N [6]: 4.3
EP Mean [6]: 291000 EP
S-N [6]: 1170 DE
DE Mean [7]: 4910 DE
DE S/N [7]: 11.9
EP Mean [7]: 926000 EP
S-N [7]: 4290 DE
AvgDE [8]: 208 DE
AvgDE [9]: 922 DE
DE Mean [10]: 925 DE
DE S/N [10]: 2.3
EP Mean [10]: 143000 EP
S-N [10]: 470 DE
AvgDE [11]: 1610 DE
DE Mean [12]: 585 DE
DE S/N [12]: 1.4
EP Mean [12]: 91300 EP
S-N [12]: 136 DE
AvgDE [13]: 289 DE
DE S/N [14]: 1
AvgDE [15]: 112 DE
AvgDE [16]: 10700 DE
AvgDE [17]: 6430 DE
AvgDE [18]: 12700 DE
Substance: anti-UBE3A antibody H00007337-M02 (AbNova)

AEB1 [19]: 0.0249
Ave AEB [19]: 0.0249
Signal to Background [19]: 1.04
AEB1 [20]: 0.0432
AEB2 [20]: 0.0414
Ave AEB [20]: 0.0423
Signal to Background [20]: 0.96
AEB1 [21]: 0.0052
AEB2 [21]: 0.0068
Ave AEB [21]: 0.006
Signal to Background [21]: 0.792
AEB1 [22]: 0.0191
AEB2 [22]: 0.018
Ave AEB [22]: 0.0186
Signal to Background [22]: 1.12
AEB1 [23]: 0.009
AEB2 [23]: 0.0088
Ave AEB [23]: 0.0089
Signal to Background [23]: 1.17
AEB1 [24]: 0.0965
AEB2 [24]: 0.095
Ave AEB [24]: 0.0957
Signal to Background [24]: 1.04
AEB1 [25]: 0.0511
AEB2 [25]: 0.0431
Ave AEB [25]: 0.0471
Signal to Background [25]: 0.95
AEB1 [26]: 0.0269
AEB2 [26]: 0.0251
Ave AEB [26]: 0.026
Signal to Background [26]: 1.09
AEB1 [27]: 0.0277
AEB2 [27]: 0.024
Ave AEB [27]: 0.0259
Signal to Background [27]: 1.08
AEB1 [28]: 0.0475
AEB2 [28]: 0.045
Ave AEB [28]: 0.0462
Signal to Background [28]: 0.92
AEB1 [29]: 0.0906
AEB2 [29]: 0.0965
Ave AEB [29]: 0.0936
Signal to Background [29]: 1.02
AEB1 [30]: 0.0234
AEB2 [30]: 0.0226
Ave AEB [30]: 0.023
Signal to Background [30]: 1.39
AEB1 [31]: 0.0078
AEB2 [31]: 0.0073
Ave AEB [31]: 0.0075
Signal to Background [31]: 0.99
AEB1 [32]: 0.047
AEB2 [32]: 0.0451
Ave AEB [32]: 0.046
Signal to Background [32]: 0.93
AEB1 [33]: 0.109
AEB2 [33]: 0.109
Ave AEB [33]: 0.109
Signal to Background [33]: 1.19
AEB1 [34]: 0.0221
AEB2 [34]: 0.0242
Ave AEB [34]: 0.0232
Signal to Background [34]: 0.97
AEB1 [35]: 0.0409
AEB2 [35]: 0.0476
Ave AEB [35]: 0.0443
Signal to Background [35]: 1
AEB1 [36]: 0.047
AEB2 [36]: 0.0463
Ave AEB [36]: 0.0466
Signal to Background [36]: 1.05
AEB1 [37]: 0.043
AEB2 [37]: 0.0459
Ave AEB [37]: 0.0445
Signal to Background [37]: 1.01
AEB1 [38]: 0.0177
AEB2 [38]: 0.016
Ave AEB [38]: 0.0168
Signal to Background [38]: 1.01
AEB1 [39]: 0.048
AEB2 [39]: 0.0444
Ave AEB [39]: 0.0462
Signal to Background [39]: 0.93
AEB1 [40]: 0.0965
AEB2 [40]: 0.0944
Ave AEB [40]: 0.0955
Signal to Background [40]: 1.04
AEB1 [41]: 0.0582
AEB2 [41]: 0.0565
Ave AEB [41]: 0.0574
Signal to Background [41]: 3.46
AEB1 [42]: 0.0203
AEB2 [42]: 0.0195
Ave AEB [42]: 0.0199
Signal to Background [42]: 2.62
Substance: 2F6 (WH0007337M1-100 ug, Millipore-Sigma) (antibody)
